The text below walks through data of publication PMC12732646, “Peroxisome Proliferator-Activated Receptor α/δ/γ Activation Profile by Endogenous Long-Chain Fatty Acids” (International Journal of Molecular Sciences, 2025).

Ends that are not written are not given here.

What all share (settings): both partners purified
The target in test [1] is T1, Human PPARδ-LBD (amino acids 170–441) (human, UniProt Q03181 170-441).
T1 sequence (looked up): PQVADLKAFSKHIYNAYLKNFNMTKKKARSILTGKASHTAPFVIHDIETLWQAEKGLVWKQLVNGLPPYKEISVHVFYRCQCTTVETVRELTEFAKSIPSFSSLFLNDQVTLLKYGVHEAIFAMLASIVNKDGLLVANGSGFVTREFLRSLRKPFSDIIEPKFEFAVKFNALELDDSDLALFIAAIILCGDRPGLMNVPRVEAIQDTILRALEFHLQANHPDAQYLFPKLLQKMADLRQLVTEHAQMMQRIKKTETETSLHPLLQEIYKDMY
Put plainly: FRET or BRET; same cell-free TR-FRET coactivator recruitment; with approved drug (pemafibrate for PPARα, seladelpar for PPARδ, pioglitazone for PPARγ), concentration series; response as percent of the maximal response with 1 µM GW full agonist. Background: BRET reads energy transfer from a luciferase to a nearby fluorophore.

In test [2] the target is T2, Human PPARα-LBD (amino acids 200–468) (human, UniProt Q07869 200-468).
T2 construct: source: delipidized with ethanol
T2 sequence (looked up): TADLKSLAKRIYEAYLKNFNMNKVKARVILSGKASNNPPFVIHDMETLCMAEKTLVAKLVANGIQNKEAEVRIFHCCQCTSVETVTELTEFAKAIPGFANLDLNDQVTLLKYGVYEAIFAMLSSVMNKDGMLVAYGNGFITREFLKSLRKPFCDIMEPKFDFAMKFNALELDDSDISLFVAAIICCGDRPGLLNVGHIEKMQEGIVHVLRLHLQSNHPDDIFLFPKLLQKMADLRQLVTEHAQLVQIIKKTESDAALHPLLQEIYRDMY
The description is as above.

Test [3] deals with T3, Human PPARγ-LBD (isoform 1; amino acids 203–477) (human, UniProt P37231-2 203-477).
T3 construct: numbers count on: isoform 1
T3 sequence (looked up): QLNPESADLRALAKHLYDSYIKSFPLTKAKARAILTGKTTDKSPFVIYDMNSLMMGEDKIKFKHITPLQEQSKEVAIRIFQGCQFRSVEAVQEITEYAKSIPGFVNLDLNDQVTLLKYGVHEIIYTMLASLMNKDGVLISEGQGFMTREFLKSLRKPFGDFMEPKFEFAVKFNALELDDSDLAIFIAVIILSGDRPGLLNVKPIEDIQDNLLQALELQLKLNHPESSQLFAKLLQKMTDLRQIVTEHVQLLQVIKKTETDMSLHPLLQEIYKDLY
Description: FRET or BRET; cell-free TR-FRET coactivator recruitment; 6×His-LBD (9.5 µL of 400 nM) with Eu-W1024 anti-6×His antibody, biotin-labeled peptide (5 µL of 1 µM) with ULight-streptavidin; Buffer A (20 mM HEPES-NaOH pH 7.4, 150 mM NaCl, 1 mM EDTA, 0.005% Tween 20, 0.2% FA-free BSA); room temperature, 2 h; with synthetic full agonist (GW7647 for PPARα, GW501516 for PPARδ, GW1929 for PPARγ), concentration series; 665/620 ….

Test [4] deals with T3, Human PPARγ-LBD (isoform 1; amino acids …). Description: FRET or BRET; same cell-free TR-FRET coactivator recruitment; with approved drug (pemafibrate for PPARα, seladelpar for PPARδ, pioglitazone for PPARγ), concentration series; response as percent of the maximal response with 1 µM GW full agonist.

In the case of EAEEPSLLKKLLLAPANTQ (also: biotin-labeled, position not given here, source: synthetic peptide (GenScript)) [PGC1α coactivator peptide, AAs 137–155], the binding result in test [1] is reported as “binds”.

B1: TRAP220 coactivator peptide, AAs 631–655 (peptide)
peptide: PVSSMAGNTKNHPMLMNLLKDNPAQ
modifications: also: biotin-labeled, position not given here
notes: Thyroid hormone receptor-associated protein 220, amino acids 631-655, holds an LXXLL motif (LMNLL); also called thyroid hormone receptor-associated protein 220 peptide; source: synthetic peptide (GenScript)
Turning to B1, the binding result in test [1], in test [2] and in test [3] was “binds” throughout.

As for CPSSHSSLTERHKILHRLLQEGSPS (also: biotin-labeled, position not given here, source: synthetic peptide (GenScript)) [SRC1 coactivator peptide, AAs 676–700], the binding result in test [1] and in test [2] was “binds” throughout.

Turning to SGNLVPDAASKHKQLSELLRGGSGS (also: biotin-labeled, position not given here, source: synthetic peptide (GenScript)) [CBP coactivator peptide, AAs 56–80], the binding result in test [1], in test [4] and in test [2] was “binds” each time.
